The source of these data is patent publication US20220289850 (published 2022).

For assay [1], the target named is T1, human integrin avb3 (human, UniProt P06756).
T1 chain 1: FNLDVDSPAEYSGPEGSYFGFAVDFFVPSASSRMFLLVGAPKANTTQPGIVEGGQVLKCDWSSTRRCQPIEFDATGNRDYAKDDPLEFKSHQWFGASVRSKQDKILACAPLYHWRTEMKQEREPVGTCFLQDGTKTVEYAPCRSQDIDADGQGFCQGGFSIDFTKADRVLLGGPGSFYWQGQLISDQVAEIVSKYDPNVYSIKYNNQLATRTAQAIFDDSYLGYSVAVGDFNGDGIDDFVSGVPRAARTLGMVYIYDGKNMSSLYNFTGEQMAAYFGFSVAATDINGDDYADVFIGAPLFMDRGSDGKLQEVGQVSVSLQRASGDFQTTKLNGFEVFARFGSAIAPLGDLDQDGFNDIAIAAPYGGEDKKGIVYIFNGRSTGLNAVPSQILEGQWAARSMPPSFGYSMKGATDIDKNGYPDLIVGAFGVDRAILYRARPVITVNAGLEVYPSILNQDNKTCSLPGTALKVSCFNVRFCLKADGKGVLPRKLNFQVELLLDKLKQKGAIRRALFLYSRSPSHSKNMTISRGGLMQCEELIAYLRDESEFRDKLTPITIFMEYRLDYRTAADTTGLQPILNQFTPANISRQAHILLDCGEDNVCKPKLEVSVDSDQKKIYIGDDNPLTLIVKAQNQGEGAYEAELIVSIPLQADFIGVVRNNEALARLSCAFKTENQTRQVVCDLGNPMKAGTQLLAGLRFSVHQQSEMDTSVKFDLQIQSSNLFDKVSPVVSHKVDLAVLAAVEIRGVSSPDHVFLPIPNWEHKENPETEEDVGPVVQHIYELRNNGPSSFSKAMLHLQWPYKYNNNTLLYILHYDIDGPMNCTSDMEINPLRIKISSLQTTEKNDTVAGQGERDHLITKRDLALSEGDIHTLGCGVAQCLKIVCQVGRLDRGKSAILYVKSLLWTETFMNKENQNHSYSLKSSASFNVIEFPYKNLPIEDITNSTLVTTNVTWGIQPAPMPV
T1 chain 2: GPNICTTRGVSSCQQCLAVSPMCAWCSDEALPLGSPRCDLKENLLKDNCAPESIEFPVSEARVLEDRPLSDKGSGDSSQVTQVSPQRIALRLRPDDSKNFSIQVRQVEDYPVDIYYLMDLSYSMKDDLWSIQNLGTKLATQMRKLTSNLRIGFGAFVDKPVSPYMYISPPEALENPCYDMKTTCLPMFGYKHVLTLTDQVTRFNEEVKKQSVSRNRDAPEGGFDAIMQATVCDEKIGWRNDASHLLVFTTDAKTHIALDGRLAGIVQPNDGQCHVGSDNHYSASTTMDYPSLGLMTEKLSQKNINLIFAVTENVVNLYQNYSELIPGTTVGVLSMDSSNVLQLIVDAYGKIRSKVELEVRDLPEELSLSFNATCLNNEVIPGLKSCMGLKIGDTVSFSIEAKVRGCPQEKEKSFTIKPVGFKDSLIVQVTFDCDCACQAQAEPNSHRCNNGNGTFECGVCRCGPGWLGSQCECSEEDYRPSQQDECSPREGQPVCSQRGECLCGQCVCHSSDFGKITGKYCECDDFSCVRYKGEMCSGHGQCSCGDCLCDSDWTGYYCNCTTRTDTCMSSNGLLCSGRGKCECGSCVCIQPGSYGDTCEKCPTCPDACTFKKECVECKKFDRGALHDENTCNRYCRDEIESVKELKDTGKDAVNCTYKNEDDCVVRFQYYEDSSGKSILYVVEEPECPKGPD
The experiment in a line: SPR.

In assay [2] the target is T2, human integrin avb5 (human, UniProt P06756).
T2 chain 1: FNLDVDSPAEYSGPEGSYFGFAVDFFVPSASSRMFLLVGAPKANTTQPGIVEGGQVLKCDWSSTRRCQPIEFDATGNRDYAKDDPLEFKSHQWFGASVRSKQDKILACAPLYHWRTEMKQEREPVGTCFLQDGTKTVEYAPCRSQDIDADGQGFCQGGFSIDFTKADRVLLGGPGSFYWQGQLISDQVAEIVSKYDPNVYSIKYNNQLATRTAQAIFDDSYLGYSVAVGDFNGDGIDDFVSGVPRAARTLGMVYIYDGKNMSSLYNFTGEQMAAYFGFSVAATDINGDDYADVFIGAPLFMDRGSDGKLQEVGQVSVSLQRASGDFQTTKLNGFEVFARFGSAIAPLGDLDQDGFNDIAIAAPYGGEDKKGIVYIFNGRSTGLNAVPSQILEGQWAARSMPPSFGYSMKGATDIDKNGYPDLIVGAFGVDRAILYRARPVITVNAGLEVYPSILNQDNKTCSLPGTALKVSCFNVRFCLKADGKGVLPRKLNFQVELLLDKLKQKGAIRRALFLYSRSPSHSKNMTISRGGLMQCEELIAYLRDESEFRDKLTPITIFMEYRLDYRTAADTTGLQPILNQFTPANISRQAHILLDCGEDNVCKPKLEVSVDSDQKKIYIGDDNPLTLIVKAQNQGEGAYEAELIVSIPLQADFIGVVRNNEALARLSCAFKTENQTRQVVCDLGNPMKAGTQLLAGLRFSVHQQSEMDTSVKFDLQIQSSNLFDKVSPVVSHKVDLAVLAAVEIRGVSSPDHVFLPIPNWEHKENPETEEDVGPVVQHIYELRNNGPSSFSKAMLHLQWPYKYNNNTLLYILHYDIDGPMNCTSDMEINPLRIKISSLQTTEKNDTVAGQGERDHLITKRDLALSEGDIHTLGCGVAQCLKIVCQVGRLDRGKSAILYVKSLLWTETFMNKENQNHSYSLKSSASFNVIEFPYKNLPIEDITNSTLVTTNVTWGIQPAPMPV
T2 chain 2: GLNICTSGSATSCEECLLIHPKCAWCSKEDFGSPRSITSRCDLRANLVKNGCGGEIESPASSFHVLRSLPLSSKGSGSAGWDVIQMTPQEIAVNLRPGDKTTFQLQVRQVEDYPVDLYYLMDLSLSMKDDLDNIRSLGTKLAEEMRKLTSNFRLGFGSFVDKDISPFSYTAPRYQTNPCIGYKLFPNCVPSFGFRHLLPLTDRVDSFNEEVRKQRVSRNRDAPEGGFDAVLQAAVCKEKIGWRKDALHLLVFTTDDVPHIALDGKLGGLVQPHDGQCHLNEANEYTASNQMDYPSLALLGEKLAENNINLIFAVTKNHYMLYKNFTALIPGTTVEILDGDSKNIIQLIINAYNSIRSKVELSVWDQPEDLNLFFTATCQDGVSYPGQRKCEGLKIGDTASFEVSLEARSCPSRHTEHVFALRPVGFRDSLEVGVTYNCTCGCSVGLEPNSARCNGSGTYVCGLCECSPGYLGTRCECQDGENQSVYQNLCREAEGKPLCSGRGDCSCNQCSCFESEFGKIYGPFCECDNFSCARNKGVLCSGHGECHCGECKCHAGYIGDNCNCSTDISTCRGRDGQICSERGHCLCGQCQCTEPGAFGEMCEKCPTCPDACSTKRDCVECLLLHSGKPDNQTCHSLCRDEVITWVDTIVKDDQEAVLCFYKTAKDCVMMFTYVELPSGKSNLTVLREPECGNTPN
As to the kind of experiment: FACS HEK cells.

B1: ADWA11 2.4 IgG (antibody)
chain 1: EVQLVESGGGLVQPGGSLRLSCAASGFNIKDYYMNWVRQAPGKGLEWVGWIDPDQGNTIYEPKFQGRFTISADTSKNSAYLQMNSLRAEDTAVYYCARRLLMDYWGQGTLVTVSSASTKGPSVFPLAPSSKSTSGGTAALGCLVKDYFPEPVTVSWNSGALTSGVHTFPAVLQSSGLYSLSSVVTVPSSSLGTQTYICNVNHKPSNTKVDKKVEPKSCDKTHTCPPCPAPEAAGAPSVFLFPPKPKDTLMISRTPEVTCVVVDVSHEDPEVKFNWYVDGVEVHNAKTKPREEQYNSTYRVVSVLTVLHQDWLNGKEYKCKVSNKALPAPIEKTISKAKGQPREPQVYTLPPSREEMTKNQVSLTCLVKGFYPSDIAVEWESNGQPENNYKTTPPVLDSDGSFFLYSKLTVDKSRWQQGNVFSCSVMHEALHNHYTQKSLSLSPGK
chain 2: DIQMTQSPSSLSASVGDRVTITCRSTKSLSHFNGNTYLFWYQQKPGKAPKRLIYYMSSLASGVPSRFSGSGSGTDFTLTISSLQPEDFATYYCQQSLEYPFTFGGGTKVEIKRTVAAPSVFIFPPSDEQLKSGTASVVCLLNNFYPREAKVQWKVDNALQSGNSQESVTEQDSKDSTYSLSSTLTLSKADYEKHKVYACEVTHQGLSSPVTKSFNRGEC
With B1, the binding result in assay [1] and in assay [2] was “no binding” in each case.
